Test results published in the supplement of paper PMC7125110.
± gives the standard error. Fewer inactive variants are shown than the library holds.

B1: glmS ribozyme (parent)
chain: AUAAAAGCGCCAGAACUACAGAAAUGUAGUUGACGAGGAGGAGGUUUAUCGAAUUUUCGGCGGAUGCCUCCAAA

Tests used:
Conditions in all cases: with glucosamine-6-phosphate
glucosamine-6-phosphate [1] = variants of: B1; assay: self-cleavage kobs at 40 uM GlcN6P; higher = faster cleavage; RNA array
In short: (§1)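 Using a hybridised Cy3 probe at 37 °C, barcoded ribozyme variants transcribed in situ by E. coli RNA polymerase on sequenced MiSeq chips were monitored across tiles imaged over ~14 h. The flow contained glucosamine-6-phosphate from 40 μM to 10 mM in HEPES/KCl/Mg(OAc)2 buffer. Signals were normalised to baseline and to non-cleaving reference variants before per-tile medians were fit to one- or two-exponential decays to yield kobs. Weighted Michaelis–Menten fits across concentrations gave kcat and KM.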

glucosamine-6-phosphate [2] = variants of: B1; assay: self-cleavage kobs at 160 uM GlcN6P; higher = faster cleavage; RNA array
In short: as §1

glucosamine-6-phosphate [3] = variants of: B1; assay: self-cleavage kobs at 640 uM GlcN6P; higher = faster cleavage; RNA array
In short: as §1

glucosamine-6-phosphate [4] = variants of: B1; assay: self-cleavage kobs at 2500 uM GlcN6P; higher = faster cleavage; RNA array
In short: as §1

glucosamine-6-phosphate [5] = variants of: B1; assay: self-cleavage kobs at 10000 uM GlcN6P; higher = faster cleavage; RNA array
In short: as §1

Variant | self-cleavage kobs at 40 uM GlcN6P (glucosamine-6-phosphate [1]) [s⁻¹] | self-cleavage kobs at 160 uM GlcN6P (glucosamine-6-phosphate [2]) [s⁻¹] | self-cleavage kobs at 640 uM GlcN6P (glucosamine-6-phosphate [3]) [s⁻¹] | self-cleavage kobs at 2500 uM GlcN6P (glucosamine-6-phosphate [4]) [s⁻¹] | self-cleavage kobs at 10000 uM GlcN6P (glucosamine-6-phosphate [5]) [s⁻¹]
A12U U54A | 0.00273 ± 0.00049 | 0.00304 ± 0.00084 | 0.0221 ± 0.0044 | 0.0233 ± 0.0078 | 0.121 ± 0.059
G13A A36G | < 1e-05 | < 1e-05 | < 1e-05 | < 1e-05 | < 1e-05
C11U C61G U69C | 9.12e-05 ± 2.3e-05 |  |  |  | 4.04e-05 ± 1.7e-05
G9C U45G | < 1e-05 | < 1e-05 | < 1e-05 | < 1e-05 | 
C8U C68G | 0.000619 ± 0.00023 |  |  |  | 0.000231 ± 5.8e-05
C11G U55C | < 1e-05 | < 1e-05 | < 1e-05 |  | 
C10A C50G G63C | 0.000128 ± 3.3e-05 |  |  | 7.48e-05 ± 2.8e-05 | 4.91e-05 ± 1.8e-05
G13A C50G C68G | 7.03e-05 ± 1.5e-05 |  |  | 0.000125 ± 2.6e-05 | 9.04e-05 ± 1.9e-05
A12U U65A C67A | 6.19e-05 ± 1.3e-05 |  |  |  | 0.000114 ± 2e-05
G13A A36G C50G G66C | 0.000105 ± 3.1e-05 |  |  |  | 
G9U A12U A33G G40U | < 1e-05 |  |  |  | 
C10U G29A U47G | < 1e-05 |  |  |  | 
C11G U45A | < 1e-05 |  |  |  | 
C10U U57G | < 1e-05 |  |  |  | 
C10U U57A | < 1e-05 |  |  |  | < 1e-05
C10U C16G G29U | < 1e-05 |  |  |  | 
C11A G41U | < 1e-05 | < 1e-05 | < 1e-05 | < 1e-05 | 
C8U G32C | < 1e-05 | < 1e-05 | < 1e-05 | < 1e-05 | < 1e-05
G9U C11G | < 1e-05 |  |  | < 1e-05 | < 1e-05
G9A A12U G13C G40C | < 1e-05 |  |  |  | < 1e-05
C10U A14C A36G G41A | < 1e-05 | < 1e-05 | < 1e-05 | < 1e-05 | 
C8U G59A | < 1e-05 | < 1e-05 | < 1e-05 |  | < 1e-05
C8U C58U C67U U69C | 0.00084 ± 0.00041 |  |  |  | 0.000669 ± 0.00018
C10G C11G G63C | < 1e-05 |  |  |  | < 1e-05
G9C U54A | < 1e-05 | < 1e-05 |  |  | < 1e-05

Variant | self-cleavage kobs at 40 uM GlcN6P (glucosamine-6-phosphate [1]) [s⁻¹] | self-cleavage kobs at 160 uM GlcN6P (glucosamine-6-phosphate [2]) [s⁻¹] | self-cleavage kobs at 640 uM GlcN6P (glucosamine-6-phosphate [3]) [s⁻¹] | self-cleavage kobs at 2500 uM GlcN6P (glucosamine-6-phosphate [4]) [s⁻¹] | self-cleavage kobs at 10000 uM GlcN6P (glucosamine-6-phosphate [5]) [s⁻¹]
A12G C16G A53U C71A | < 1e-05 |  |  |  | 
G9U G40C | < 1e-05 | < 1e-05 | < 1e-05 |  | < 1e-05
C10A A64U | < 1e-05 |  | < 1e-05 | < 1e-05 | < 1e-05
A12U A39U C71U | 0.000517 ± 0.00011 |  |  |  | 0.0493 ± 0.014
C11G G32U | < 1e-05 | < 1e-05 |  |  | < 1e-05
C10G G13A | < 1e-05 | < 1e-05 | < 1e-05 |  | 
C11U U46A | < 1e-05 | < 1e-05 |  | 4.03e-05 ± 1.7e-05 | 9.01e-05 ± 1.7e-05
G9A G40C | < 1e-05 | < 1e-05 | < 1e-05 |  | 
C10U G32A G51C C67U C71U | < 1e-05 |  |  | < 1e-05 | 
C11U G29U A39U A64U | < 1e-05 |  |  |  | 
A12U U49A | < 1e-05 | < 1e-05 |  |  | 
C11A G40A | < 1e-05 | < 1e-05 |  |  | 3.6e-05 ± 1.4e-05
C10A G59C | < 1e-05 | < 1e-05 | < 1e-05 | < 1e-05 | < 1e-05
C10U G35U A39U A48G | < 1e-05 | < 1e-05 | < 1e-05 | < 1e-05 | < 1e-05
G9C G66A | < 1e-05 |  | < 1e-05 |  | < 1e-05
A12C A14G A53U C67G | 9.17e-05 ± 2.3e-05 |  |  |  | 0.00219 ± 0.00062
G9U C58A | < 1e-05 |  |  |  | < 1e-05
A12U A14G A52G | 0.000148 ± 3e-05 |  |  | 0.00387 ± 0.0018 | 0.00726 ± 0.0014
A12U G62C | < 1e-05 | < 1e-05 | < 1e-05 | < 1e-05 | < 1e-05
G13A G60U A64C | < 1e-05 |  |  |  | 
C8U U54A | < 1e-05 | < 1e-05 | < 1e-05 | < 1e-05 | < 1e-05
A12C C34U G44C U56A U57A | < 1e-05 |  |  |  | < 1e-05
A12U U57C C61A | < 1e-05 |  | < 1e-05 |  | < 1e-05
C10A C34G A42G C70G | < 1e-05 |  |  |  | < 1e-05
C10U A64G C68A | < 1e-05 |  |  |  | 

Variant | self-cleavage kobs at 40 uM GlcN6P (glucosamine-6-phosphate [1]) [s⁻¹] | self-cleavage kobs at 160 uM GlcN6P (glucosamine-6-phosphate [2]) [s⁻¹] | self-cleavage kobs at 640 uM GlcN6P (glucosamine-6-phosphate [3]) [s⁻¹] | self-cleavage kobs at 2500 uM GlcN6P (glucosamine-6-phosphate [4]) [s⁻¹] | self-cleavage kobs at 10000 uM GlcN6P (glucosamine-6-phosphate [5]) [s⁻¹]
G13A U46G G59U C70U | < 1e-05 |  |  | < 1e-05 | 
A12U A14G | 0.00336 ± 0.00044 | 0.00737 ± 0.0027 | 0.0265 ± 0.0078 |  | 
C11G C58U G59U | < 1e-05 |  |  |  | < 1e-05
G9A C34G U46C C61U G62U | < 1e-05 |  |  |  | 
C8U G41A | < 1e-05 | < 1e-05 | < 1e-05 | < 1e-05 | < 1e-05
C10U G59C | < 1e-05 | < 1e-05 | < 1e-05 |  | < 1e-05
A12G A33G U57G | < 1e-05 |  |  |  | 
C10G G43A A48G U54G C58A A64U | < 1e-05 |  | < 1e-05 | < 1e-05 | < 1e-05
C11G G62C A64G C68G | < 1e-05 |  |  |  | < 1e-05
C11A A12C G32U C50G | 0.000123 ± 3.9e-05 |  |  |  | 0.000269 ± 6.1e-05
C11U A33C A53U U57G G60U | < 1e-05 |  |  |  | < 1e-05
C10U C11A A39C A42U U47C G66C | < 1e-05 |  |  |  | 
A12U U30G U56G | 0.000609 ± 0.00013 |  |  |  | 0.0339 ± 0.0098
C11A U45C | < 1e-05 |  | < 1e-05 |  | 
C11G A48G | < 1e-05 | < 1e-05 | < 1e-05 | < 1e-05 | < 1e-05
A12C U45G | 0.000128 ± 4.1e-05 |  |  |  | 0.012 ± 0.004
A12G C58U | < 1e-05 |  |  | 1.67e-05 ± 7.9e-06 | 6.35e-05 ± 8.1e-06
G9U U45G A53G G62U | < 1e-05 |  |  |  | < 1e-05
G9C U47G | < 1e-05 |  |  |  | < 1e-05
G9U G13A A36U G38A U65G | < 1e-05 |  |  |  | < 1e-05
C11A A39G U45A A52U | < 1e-05 |  |  |  | 
A12C C34G | < 1e-05 | < 1e-05 |  |  | < 1e-05
A12U A42U G59C | < 1e-05 |  |  |  | 
G9A C11A | < 1e-05 | < 1e-05 |  |  | 
C11U G40C U46G | < 1e-05 |  |  |  | 

Variant | self-cleavage kobs at 40 uM GlcN6P (glucosamine-6-phosphate [1]) [s⁻¹] | self-cleavage kobs at 160 uM GlcN6P (glucosamine-6-phosphate [2]) [s⁻¹] | self-cleavage kobs at 640 uM GlcN6P (glucosamine-6-phosphate [3]) [s⁻¹] | self-cleavage kobs at 2500 uM GlcN6P (glucosamine-6-phosphate [4]) [s⁻¹] | self-cleavage kobs at 10000 uM GlcN6P (glucosamine-6-phosphate [5]) [s⁻¹]
G9A U45C | < 1e-05 | < 1e-05 |  |  | < 1e-05
A12G A48G G63A A64G | < 1e-05 |  |  |  | < 1e-05
C11G A48U G63C | < 1e-05 |  |  |  | < 1e-05
A12U G35U U49C | < 1e-05 |  |  | < 1e-05 | 
C10G C61U | < 1e-05 | < 1e-05 | < 1e-05 |  | < 1e-05
G9C U57A | < 1e-05 |  | < 1e-05 | < 1e-05 | 
G9U A14C A52C | < 1e-05 |  |  | < 1e-05 | < 1e-05
C10U A12G G13C | < 1e-05 |  |  |  | < 1e-05
C11U G60C | < 1e-05 | < 1e-05 |  |  | < 1e-05
C10A C61U | < 1e-05 |  |  | < 1e-05 | 
C8U G13U | < 1e-05 |  | < 1e-05 | < 1e-05 | < 1e-05
G9C G51A A52U C70G | < 1e-05 |  | < 1e-05 |  | 
C10A A36U C68G | 8.85e-05 ± 2.9e-05 |  |  |  | 6.62e-05 ± 2.1e-05
C10G G32U C58A C70G | 5.06e-05 ± 1.8e-05 |  |  |  | 
G9U C16U A52G C67G | 0.000158 ± 3.7e-05 |  |  |  | 0.000546 ± 0.00017
C11U G13C C16A U49A | < 1e-05 | < 1e-05 | < 1e-05 |  | 
C10G U30A | < 1e-05 | < 1e-05 | < 1e-05 | < 1e-05 | < 1e-05
C10A U31A C58G C67A | 4.23e-05 ± 1.8e-05 |  | 0.00013 ± 3.4e-05 | 0.000317 ± 0.00016 | 3.62e-05 ± 1.5e-05
A12G G32C G37U C71G | < 1e-05 |  |  |  | 
A12C G29A G35C A52U U54A G60U C67G | < 1e-05 |  |  |  | 
C11U U49G C58U G60C | < 1e-05 |  |  | < 1e-05 | 
A12U A52G C67U | 7.05e-05 ± 1.6e-05 |  |  |  | 0.00179 ± 0.00037
G13C A36C C71G | < 1e-05 |  | < 1e-05 |  | 
G9C G43U G44U C58A C71A | < 1e-05 |  |  |  | 
G9U G32U G41U A53C | < 1e-05 |  |  |  | < 1e-05
